The source of these data is patent publication US8361965B2, “Recombinant chimeric protein of neutrophil inhibitory factor and hirugen, and pharmaceutical composition thereof” (Lunan Pharmaceutical Group Corporation, priority 2008, dated 2013).

One assay addresses thrombin (Homo sapiens, UniProt P00734). Briefly: in vitro test for reversible reaction of TNHH and thrombin (Hirudin ELISA). It counts as biochemical. Further details: Human thrombin (127 Unit/ampoule), Lot No.: 20021105; purchased National Institute for The Control of Pharmaceutical and Biological Products Lot No.: 20021105. The method, then:
Adding 1.27 ml water into one ampoule of human thrombin, and mixing to obtain 100 Unit/ml solution; diluting the mother liquid of TNHH with water to 1.0 mg/ml, taking 0.5 ml thus obtained solution and adding 0.1 ml thrombin solution ([…] of thrombin), reacting at 37 for 2 hr, centrifuging and collecting the supernatant, diluting for 10 times with the dilution solution (taught by the instruction of IMUBIND® Hirudin ELISA Kit), repeating the dilution for 6 times at a four fold gradient, detecting according to the instruction of IMUBIND® Hirudin ELISA Kit, and determining the absorbance at 450 nm wavelength.
For orientation: ELISA stands for enzyme-linked immunosorbent assay.

The subject of assay [1] is platelet aggregation induced by human thrombin. Kind of assay: antiplatelet aggregation assay (rabbits dosed i.v., thrombin-induced aggregation of PRP). Format: in vivo, Japanese Giant Ear White Rabbits. Particulars: for aggregation ratio, difference: before vs 15 min after. The method, then:
Platelet aggregation rate was determined by puncture of the central artery of the ear before administration, and then rabbits were randomly divided into 5 groups (4 in each group) based on the platelet aggregation rate and body weight: (1) negative control group (5.12 mg mannitol/kg), (2) high dose TNHH group (4.0 mg/kg), (3) middle dose TNHH group (2.0 mg/kg), (4) low dose TNHH group (1.0 mg/kg), and (5) positive control group (0.1 mg recombinant hirudin/kg). The rabbits in each group were administered at the dose respectively via intravenous injection from the marginal ear vein. Blood samples were collected at the time of 15 min after administration (timed by stopwatch) by puncture of the central artery of the ear to determine the platelet aggregation rate. The method of platelet aggregation rate determination was described as follows: the blood samples were collected by puncture of the central artery of the ear using silicified syringe. 3.8% anticoagulant sodium citrate solution (blood: anticoagulant=9:1) was used. The sample was centrifuged at 200×g for 8 min, and the supernatant obtained was platelet-rich plasma (PRP); then the remaining part was centrifuged again at 2200×g for 10 min, and the supernatant obtained was platelet-poor plasma (PPP). The platelet in PRP was counted as approximate 4.0×10^5/mm^3. According to Born's turbidimetry, a turbidimetric tube with 200 μl PRP and a small magnetic bar was placed in a platelet aggregation instrument and incubated at 37 for 1 min. After calibrating with PPP, the platelet was induced to aggregate by adding inductive human thrombin (0.76 IU/ml) under stirring. The effect of medicaments on the aggregation of platelet was analyzed using the aggregation curve and the maximum aggregation rate obtained from the instrument. The maximum aggregation rate was calculated according to the formula below: […]

B1: TNHH: recombinant chimeric protein of neutrophil inhibitory factor and hirugen, Met-NIF-GGGGG-FPRPGSGG-Hirugen (SEQ ID NO: 3), expressed in E. coli (protein)
chain: MNEHNLRCPQNGTEMPGFNDSIRLQFLAMHNGYRSKLALGHISITEESESDDDDDFGFLPDFAPRASKMRYLEYDCEAEKSAYMSARNCSDSSSPPEGYDENKYIFENSNNISEAALKAMISWAKEAFNLNKTKEGEGVLYRSNHDISNFANLAWDAREKFGCAVVNCPLGEIDDETNHDGETYATTIHVVCHYPKINKTEGQPIYKVGTPCDDCSEYTKKADNTTSADPVCIPDDGVCFIGSKADYDSKEFYRFRELGGGGGFPRPGSGGNGDFEEIPEEYL
modifications: N-terminal Met
Take B1: the “in vitro interaction with thrombin (reversibility)” value with thrombin (37, 2 hr, Hirudin ELISA of supernatant) was “irreversible”. The hydrolysis by thrombin entry in the assay with thrombin (structure FPRP-GSGG-hirugen within TNHH) is given as “could not be hydrolyzed by thrombin”. The “aggregation ratio, Before administration” value amounted to 57.19 ± 4.42% in assay [1] (TNHH 1.0 mg/kg group), 59.62 ± 7.22% in assay [1] (TNHH 2.0 mg/kg group) and 59.23 ± 6.30% in assay [1] (TNHH 4.0 mg/kg group). Also, the “aggregation ratio, 15 min after administration” value in assay [1] (TNHH 1.0 mg/kg i.v.) came out at 36.27 ± 12.13%; in assay [1] (TNHH 2.0 mg/kg i.v.), 19.33 ± 10.25%; in assay [1] (TNHH 4.0 mg/kg i.v.), 9.22 ± 4.51%. The “aggregation ratio, difference” value amounted to 20.82 ± 7.98 % in assay [1] (TNHH 1.0 mg/kg i.v.), 30.30 ± 9.92 % in assay [1] (TNHH 2.0 mg/kg i.v.) and 50.92 ± 4.33 % in assay [1] (TNHH 4.0 mg/kg i.v.).
